# Source: patent publication US20260274985A1 (MYTHIC THERAPEUTICS, published 2026)
# T1: Human TROP2 Protein, His Tag (Acro Biosystems) (human, UniProt P09758 27-274)
# T1 construct: Bought protein; also called TACSTD2; not shown: His tag
# T1 sequence: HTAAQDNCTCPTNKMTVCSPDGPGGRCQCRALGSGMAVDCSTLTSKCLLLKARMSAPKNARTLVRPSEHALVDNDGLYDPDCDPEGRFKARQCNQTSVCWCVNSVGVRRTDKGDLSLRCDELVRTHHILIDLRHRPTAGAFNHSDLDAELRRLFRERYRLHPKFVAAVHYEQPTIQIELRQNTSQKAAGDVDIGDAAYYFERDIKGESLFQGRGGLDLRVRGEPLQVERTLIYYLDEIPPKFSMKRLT
# T2: Human TROP2 Protein, His Tag (human, UniProt P09758 27-274)
# T2 construct: Bought protein; also called TACSTD2; not shown: His tag
# T2 sequence (looked up): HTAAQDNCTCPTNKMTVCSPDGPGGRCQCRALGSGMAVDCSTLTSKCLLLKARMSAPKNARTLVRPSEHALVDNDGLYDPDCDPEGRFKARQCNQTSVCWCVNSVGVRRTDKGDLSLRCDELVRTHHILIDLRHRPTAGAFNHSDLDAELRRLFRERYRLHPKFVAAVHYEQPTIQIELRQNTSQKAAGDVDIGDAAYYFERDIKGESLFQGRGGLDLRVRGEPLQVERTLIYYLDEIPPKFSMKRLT
# Tests used:
# [1] = biological target: T1, Human TROP2 Protein, His Tag (Acro …); experiment: BLI (Octet)
# [2] = biological target: T2, Human TROP2 Protein, His Tag; experiment: BLI (Octet)
Binder,binding result [1],binding result [2]
"MYT12445 (hu7E6SVG variant, LCV substitutions at 60, 94 (Ala at 94)) (antibody, V domains shown, Full IgG in Expi293 supernatant) VH: QVQLQESGPGLVKPSETLSLTCTVSGGSISSYGVHWIRQPPGKGLEWIGVIWTSGVTDYNSALMGRVTISVDTSKNQFSLKLSSVTAADTAVYYCARDGDYDRYTMDYWGQGTLVTVSS VL: DIVMTQSPDSLAVSLGERATINCRASKSVSTSGYSYMHWYQQKPGQPPKLLIYLASNLEHGVPDRFSGSGSGTDFTLTISSLQAEDVAVYYCQASRELPYTFGQGTKLEIK",binds,
"MYT12450 (hu7E6SVG variant, LCV substitutions at 93, 101) (antibody, V domains shown, Full IgG in Expi293 supernatant) VH: QVQLQESGPGLVKPSETLSLTCTVSGGSISSYGVHWIRQPPGKGLEWIGVIWTSGVTDYNSALMGRVTISVDTSKNQFSLKLSSVTAADTAVYYCARDGDYDRYTMDYWGQGTLVTVSS VL: DIVMTQSPDSLAVSLGERATINCRASKSVSTSGYSYMHWYQQKPGQPPKLLIYLASNLESGVPDRFSGSGSGTDFTLTISSLQAEDVAVYYCHHSRELPYHFGQGTKLEIK",binds,
"MYT12454 (hu7E6SVG variant, LCV substitutions at 59, 60, 93) (antibody, V domains shown, Full IgG in Expi293 supernatant) VH: QVQLQESGPGLVKPSETLSLTCTVSGGSISSYGVHWIRQPPGKGLEWIGVIWTSGVTDYNSALMGRVTISVDTSKNQFSLKLSSVTAADTAVYYCARDGDYDRYTMDYWGQGTLVTVSS VL: DIVMTQSPDSLAVSLGERATINCRASKSVSTSGYSYMHWYQQKPGQPPKLLIYLASNLHHGVPDRFSGSGSGTDFTLTISSLQAEDVAVYYCHHSRELPYTFGQGTKLEIK",binds,
"MYT12455 (hu7E6SVG variant, LCV substitutions at 59, 60, 94 (Ala at 94)) (antibody, V domains shown, Full IgG in Expi293 supernatant) VH: QVQLQESGPGLVKPSETLSLTCTVSGGSISSYGVHWIRQPPGKGLEWIGVIWTSGVTDYNSALMGRVTISVDTSKNQFSLKLSSVTAADTAVYYCARDGDYDRYTMDYWGQGTLVTVSS VL: DIVMTQSPDSLAVSLGERATINCRASKSVSTSGYSYMHWYQQKPGQPPKLLIYLASNLHHGVPDRFSGSGSGTDFTLTISSLQAEDVAVYYCQASRELPYTFGQGTKLEIK",binds,
"MYT12472 (hu7E6SVG variant, LCV substitutions at 93, 97, 101) (antibody, V domains shown, Full IgG in Expi293 supernatant) VH: QVQLQESGPGLVKPSETLSLTCTVSGGSISSYGVHWIRQPPGKGLEWIGVIWTSGVTDYNSALMGRVTISVDTSKNQFSLKLSSVTAADTAVYYCARDGDYDRYTMDYWGQGTLVTVSS VL: DIVMTQSPDSLAVSLGERATINCRASKSVSTSGYSYMHWYQQKPGQPPKLLIYLASNLESGVPDRFSGSGSGTDFTLTISSLQAEDVAVYYCHHSRHLPYHFGQGTKLEIK",binds,
"MYT12451 (hu7E6SVG variant, LCV substitutions at 94, 97 (Ala at 94)) (antibody, V domains shown, Full IgG in Expi293 supernatant) VH: QVQLQESGPGLVKPSETLSLTCTVSGGSISSYGVHWIRQPPGKGLEWIGVIWTSGVTDYNSALMGRVTISVDTSKNQFSLKLSSVTAADTAVYYCARDGDYDRYTMDYWGQGTLVTVSS VL: DIVMTQSPDSLAVSLGERATINCRASKSVSTSGYSYMHWYQQKPGQPPKLLIYLASNLESGVPDRFSGSGSGTDFTLTISSLQAEDVAVYYCQASRHLPYTFGQGTKLEIK",binds,
"MYT12448 (hu7E6SVG variant, LCV substitutions at 93, 94 (Ala at 94)) (antibody, V domains shown, Full IgG in Expi293 supernatant) VH: QVQLQESGPGLVKPSETLSLTCTVSGGSISSYGVHWIRQPPGKGLEWIGVIWTSGVTDYNSALMGRVTISVDTSKNQFSLKLSSVTAADTAVYYCARDGDYDRYTMDYWGQGTLVTVSS VL: DIVMTQSPDSLAVSLGERATINCRASKSVSTSGYSYMHWYQQKPGQPPKLLIYLASNLESGVPDRFSGSGSGTDFTLTISSLQAEDVAVYYCHASRELPYTFGQGTKLEIK",binds,
"MYT12447 (hu7E6SVG variant, LCV substitutions at 60, 101) (antibody, V domains shown, Full IgG in Expi293 supernatant) VH: QVQLQESGPGLVKPSETLSLTCTVSGGSISSYGVHWIRQPPGKGLEWIGVIWTSGVTDYNSALMGRVTISVDTSKNQFSLKLSSVTAADTAVYYCARDGDYDRYTMDYWGQGTLVTVSS VL: DIVMTQSPDSLAVSLGERATINCRASKSVSTSGYSYMHWYQQKPGQPPKLLIYLASNLEHGVPDRFSGSGSGTDFTLTISSLQAEDVAVYYCQHSRELPYHFGQGTKLEIK",binds,
"MYT12453 (hu7E6SVG variant, LCV substitutions at 97, 101) (antibody, V domains shown, Full IgG in Expi293 supernatant) VH: QVQLQESGPGLVKPSETLSLTCTVSGGSISSYGVHWIRQPPGKGLEWIGVIWTSGVTDYNSALMGRVTISVDTSKNQFSLKLSSVTAADTAVYYCARDGDYDRYTMDYWGQGTLVTVSS VL: DIVMTQSPDSLAVSLGERATINCRASKSVSTSGYSYMHWYQQKPGQPPKLLIYLASNLESGVPDRFSGSGSGTDFTLTISSLQAEDVAVYYCQHSRHLPYHFGQGTKLEIK",binds,
"MYT12449 (hu7E6SVG variant, LCV substitutions at 93, 97) (antibody, V domains shown, Full IgG in Expi293 supernatant) VH: QVQLQESGPGLVKPSETLSLTCTVSGGSISSYGVHWIRQPPGKGLEWIGVIWTSGVTDYNSALMGRVTISVDTSKNQFSLKLSSVTAADTAVYYCARDGDYDRYTMDYWGQGTLVTVSS VL: DIVMTQSPDSLAVSLGERATINCRASKSVSTSGYSYMHWYQQKPGQPPKLLIYLASNLESGVPDRFSGSGSGTDFTLTISSLQAEDVAVYYCHHSRHLPYTFGQGTKLEIK",binds,
"MYT12466 (hu7E6SVG variant, LCV substitutions at 60, 93, 101) (antibody, V domains shown, Full IgG in Expi293 supernatant) VH: QVQLQESGPGLVKPSETLSLTCTVSGGSISSYGVHWIRQPPGKGLEWIGVIWTSGVTDYNSALMGRVTISVDTSKNQFSLKLSSVTAADTAVYYCARDGDYDRYTMDYWGQGTLVTVSS VL: DIVMTQSPDSLAVSLGERATINCRASKSVSTSGYSYMHWYQQKPGQPPKLLIYLASNLEHGVPDRFSGSGSGTDFTLTISSLQAEDVAVYYCHHSRELPYHFGQGTKLEIK",binds,
"MYT12446 (hu7E6SVG variant, LCV substitutions at 60, 97) (antibody, V domains shown, Full IgG in Expi293 supernatant) VH: QVQLQESGPGLVKPSETLSLTCTVSGGSISSYGVHWIRQPPGKGLEWIGVIWTSGVTDYNSALMGRVTISVDTSKNQFSLKLSSVTAADTAVYYCARDGDYDRYTMDYWGQGTLVTVSS VL: DIVMTQSPDSLAVSLGERATINCRASKSVSTSGYSYMHWYQQKPGQPPKLLIYLASNLEHGVPDRFSGSGSGTDFTLTISSLQAEDVAVYYCQHSRHLPYTFGQGTKLEIK",binds,
"MYT12469 (hu7E6SVG variant, LCV substitutions at 60, 97, 101) (antibody, V domains shown, Full IgG in Expi293 supernatant) VH: QVQLQESGPGLVKPSETLSLTCTVSGGSISSYGVHWIRQPPGKGLEWIGVIWTSGVTDYNSALMGRVTISVDTSKNQFSLKLSSVTAADTAVYYCARDGDYDRYTMDYWGQGTLVTVSS VL: DIVMTQSPDSLAVSLGERATINCRASKSVSTSGYSYMHWYQQKPGQPPKLLIYLASNLEHGVPDRFSGSGSGTDFTLTISSLQAEDVAVYYCQHSRHLPYHFGQGTKLEIK",binds,
"MYT11636 (antibody, V domains shown, IgG from supernatant; His at HCV position 26; also called datopotamab variant H1 01) VH: QVQLVQSGAEVKKPGASVKVSCKASHYTFTTAGMQWVRQAPGQGLEWMGWINTHSGVPKYAEDFKGRVTISADTSTSTAYLQLSSLKSEDTAVYYCARSGFGSSYWYFDVWGQGTLVTVSS VL: DIQMTQSPSSLSASVGDRVTITCKASQDVSTAVAWYQQKPGKAPKLLIYSASYRYTGVPSRFSGSGSGTDFTLTISSLQPEDFAVYYCQQHYITPLTFGQGTKLEIK",,binds

# The remaining lines, values ahead:
binding result [1],binding result [2],Binder
,binds,"MYT11641 (antibody, V domains shown, IgG from supernatant; His at HCV position 31; also called datopotamab variant H1 06) VH: QVQLVQSGAEVKKPGASVKVSCKASGYTFTHAGMQWVRQAPGQGLEWMGWINTHSGVPKYAEDFKGRVTISADTSTSTAYLQLSSLKSEDTAVYYCARSGFGSSYWYFDVWGQGTLVTVSS VL: DIQMTQSPSSLSASVGDRVTITCKASQDVSTAVAWYQQKPGKAPKLLIYSASYRYTGVPSRFSGSGSGTDFTLTISSLQPEDFAVYYCQQHYITPLTFGQGTKLEIK"
,binds,"MYT11638 (antibody, V domains shown, IgG from supernatant; His at HCV position 28; also called datopotamab variant H1 03) VH: QVQLVQSGAEVKKPGASVKVSCKASGYHFTTAGMQWVRQAPGQGLEWMGWINTHSGVPKYAEDFKGRVTISADTSTSTAYLQLSSLKSEDTAVYYCARSGFGSSYWYFDVWGQGTLVTVSS VL: DIQMTQSPSSLSASVGDRVTITCKASQDVSTAVAWYQQKPGKAPKLLIYSASYRYTGVPSRFSGSGSGTDFTLTISSLQPEDFAVYYCQQHYITPLTFGQGTKLEIK"
,binds,"MYT11637 (antibody, V domains shown, IgG from supernatant; His at HCV position 27; also called datopotamab variant H1 02) VH: QVQLVQSGAEVKKPGASVKVSCKASGHTFTTAGMQWVRQAPGQGLEWMGWINTHSGVPKYAEDFKGRVTISADTSTSTAYLQLSSLKSEDTAVYYCARSGFGSSYWYFDVWGQGTLVTVSS VL: DIQMTQSPSSLSASVGDRVTITCKASQDVSTAVAWYQQKPGKAPKLLIYSASYRYTGVPSRFSGSGSGTDFTLTISSLQPEDFAVYYCQQHYITPLTFGQGTKLEIK"
,binds,"MYT11640 (antibody, V domains shown, IgG from supernatant; His at HCV position 30; also called datopotamab variant H1 05) VH: QVQLVQSGAEVKKPGASVKVSCKASGYTFHTAGMQWVRQAPGQGLEWMGWINTHSGVPKYAEDFKGRVTISADTSTSTAYLQLSSLKSEDTAVYYCARSGFGSSYWYFDVWGQGTLVTVSS VL: DIQMTQSPSSLSASVGDRVTITCKASQDVSTAVAWYQQKPGKAPKLLIYSASYRYTGVPSRFSGSGSGTDFTLTISSLQPEDFAVYYCQQHYITPLTFGQGTKLEIK"
,binds,"MYT11642 (antibody, V domains shown, IgG from supernatant; His at HCV position 32; also called datopotamab variant H1 07) VH: QVQLVQSGAEVKKPGASVKVSCKASGYTFTTHGMQWVRQAPGQGLEWMGWINTHSGVPKYAEDFKGRVTISADTSTSTAYLQLSSLKSEDTAVYYCARSGFGSSYWYFDVWGQGTLVTVSS VL: DIQMTQSPSSLSASVGDRVTITCKASQDVSTAVAWYQQKPGKAPKLLIYSASYRYTGVPSRFSGSGSGTDFTLTISSLQPEDFAVYYCQQHYITPLTFGQGTKLEIK"
,binds,"MYT11639 (antibody, V domains shown, IgG from supernatant; His at HCV position 29; also called datopotamab variant H1 04) VH: QVQLVQSGAEVKKPGASVKVSCKASGYTHTTAGMQWVRQAPGQGLEWMGWINTHSGVPKYAEDFKGRVTISADTSTSTAYLQLSSLKSEDTAVYYCARSGFGSSYWYFDVWGQGTLVTVSS VL: DIQMTQSPSSLSASVGDRVTITCKASQDVSTAVAWYQQKPGKAPKLLIYSASYRYTGVPSRFSGSGSGTDFTLTISSLQPEDFAVYYCQQHYITPLTFGQGTKLEIK"
